# Results taken from article PMC9404457 (Nature, 2022).
# B1: Fab^2C11 (Fab, V domains shown)
# VH: EIQLQQSGAELVKPGASVKMSCKVSGYSFTGYNMNWVKQSHGKSLEWIGNINPYYVSTNYNQKFTGKATFTVDRSSSTAYMQLDSLTSEDSAVYYCARSYGSSHTFAYWGQGTLVTVSS
# VL: DIHMTQSPASLSAFVGETVTITCRTSENIFSYLAWYQQKQGKSPQLLVYNAKTLTSGVPSRFSGSGSGTQFSLKINSLQPEDFGSYYCQHHYGSPYTFGGGTKLEIK
# Target: T1, human FLAG-tagged PORCN (isoform B) (Homo sapiens, PORCN isoform B (Q9H237-2), strain)
# T1 chain: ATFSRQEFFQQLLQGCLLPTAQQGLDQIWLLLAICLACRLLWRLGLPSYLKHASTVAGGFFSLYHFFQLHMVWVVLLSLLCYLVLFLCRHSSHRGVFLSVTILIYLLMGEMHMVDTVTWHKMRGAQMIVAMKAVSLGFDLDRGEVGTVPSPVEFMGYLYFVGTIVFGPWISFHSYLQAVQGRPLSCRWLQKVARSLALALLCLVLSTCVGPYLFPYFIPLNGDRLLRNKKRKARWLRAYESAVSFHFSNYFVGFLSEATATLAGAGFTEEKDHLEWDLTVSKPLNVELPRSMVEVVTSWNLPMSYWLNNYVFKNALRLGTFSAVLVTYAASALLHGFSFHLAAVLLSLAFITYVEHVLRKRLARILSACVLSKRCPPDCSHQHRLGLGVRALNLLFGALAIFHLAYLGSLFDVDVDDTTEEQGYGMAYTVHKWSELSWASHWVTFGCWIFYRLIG
# Assay: SEC
binder,measurement,value
B1,binding result,binds
